Data as given in the supplement of paper PMC9112550, “Optimization of the antimicrobial peptide Bac7 by deep mutational scanning” (BMC Biology, 2022).

Tested on: Escherichia coli TOP10
Assay: shrunken log2 fold change of peptide-encoding DNA abundance (4.5 h post-induction vs induction); higher = less antimicrobial activity (less host growth inhibition)
Details: time post-induction: 4.5 h; library: site-saturation at positions 5, 18, 19, 20
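Also: peptides expressed intracellularly from a pBAD plasmid library in pooled LB shake-flask culture, induced with 0.3% L-arabinose, DNA abundance read by NGS, three biological replicates, DESeq2 with apeglm shrinkage.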

Row | Sequence | shrunken log2 fold change
1 | RRIRDRPPRLPRPRPRPPNKPRP | 0.0523
2 | RRIRPRPPRLPRPRPRPKEKPRP | 0.264
3 | RRIRDRPPRLPRPRPRPIIKPRP | -0.0129
4 | RRIRVRPPRLPRPRPRPNNKPRP | -0.472
5 | RRIRIRPPRLPRPRPRPIPLPRP | 3.4
6 | RRIRIRPPRLPRPRPRPWVRPRP | 0.0146
7 | RRIRLRPPRLPRPRPRPLHKPRP | 0.223
8 | RRIRCRPPRLPRPRPRPQYCPRP | -0.135
9 | RRIRFRPPRLPRPRPRPNIQPRP | -0.973
10 | RRIRDRPPRLPRPRPRPKFWPRP | 0.442
11 | RRIRSRPPRLPRPRPRPLPLPRP | -0.0835
12 | RRIRGRPPRLPRPRPRPDNLPRP | -0.226
13 | RRIRRRPPRLPRPRPRPYECPRP | -0.0148
14 | RRIRWRPPRLPRPRPRPYFMPRP | -0.834
15 | RRIRGRPPRLPRPRPRPWFNPRP | -0.18
16 | RRIRFRPPRLPRPRPRPPHFPRP | 0.341
17 | RRIRVRPPRLPRPRPRPYFQPRP | -0.649
18 | RRIRNRPPRLPRPRPRPPCHPRP | -0.386
19 | RRIRLRPPRLPRPRPRPWTRPRP | -0.148
20 | RRIRARPPRLPRPRPRPKEYPRP | -0.15
21 | RRIRARPPRLPRPRPRPWKDPRP | -0.0732
22 | RRIRRRPPRLPRPRPRPFSRPRP | 0.18
23 | RRIRNRPPRLPRPRPRPVLHPRP | -0.00264

Row | Sequence | shrunken log2 fold change
24 | RRIRARPPRLPRPRPRPCNQPRP | -0.253
25 | RRIRGRPPRLPRPRPRPNQDPRP | 0.0491
26 | RRIRERPPRLPRPRPRPLCIPRP | -0.895
27 | RRIRKRPPRLPRPRPRPWFAPRP | 0.171
28 | RRIRERPPRLPRPRPRPLQGPRP | -0.179
29 | RRIRERPPRLPRPRPRPDTYPRP | 0.0491
30 | RRIRNRPPRLPRPRPRPVWWPRP | 0.259
31 | RRIRTRPPRLPRPRPRPPSLPRP | -0.11
32 | RRIRHRPPRLPRPRPRPVCEPRP | 0.0977
33 | RRIRTRPPRLPRPRPRPASEPRP | -0.0873
34 | RRIRDRPPRLPRPRPRPFGEPRP | -0.0214
35 | RRIRNRPPRLPRPRPRPTPVPRP | 0.425
36 | RRIRWRPPRLPRPRPRPGKNPRP | 0.13
37 | RRIRHRPPRLPRPRPRPQVVPRP | -0.101
38 | RRIRMRPPRLPRPRPRPKWDPRP | 0.68
39 | RRIRIRPPRLPRPRPRPISAPRP | -0.0879
40 | RRIRIRPPRLPRPRPRPHGGPRP | -0.0479
41 | RRIRVRPPRLPRPRPRPSSKPRP | -0.0737
42 | RRIRSRPPRLPRPRPRPAEMPRP | 0.125
43 | RRIRVRPPRLPRPRPRPGGTPRP | 0.0237
44 | RRIRVRPPRLPRPRPRPQSKPRP | -0.172
45 | RRIRMRPPRLPRPRPRPMQHPRP | 0.579
46 | RRIRMRPPRLPRPRPRPLHHPRP | -0.0632

Row | Sequence | shrunken log2 fold change
47 | RRIRRRPPRLPRPRPRPGEVPRP | 1.28
48 | RRIRYRPPRLPRPRPRPYYYPRP | -0.476
49 | RRIRGRPPRLPRPRPRPFGRPRP | -0.0748
50 | RRIRKRPPRLPRPRPRPLCHPRP | 0.252
51 | RRIRLRPPRLPRPRPRPDVDPRP | 0.0667
52 | RRIRLRPPRLPRPRPRPIVMPRP | -0.618
53 | RRIRIRPPRLPRPRPRPGNRPRP | -0.0134
54 | RRIRVRPPRLPRPRPRPKGFPRP | -0.00211
55 | RRIRFRPPRLPRPRPRPDGQPRP | -0.0411
56 | RRIRQRPPRLPRPRPRPMHFPRP | 0.169
57 | RRIRPRPPRLPRPRPRPAVPPRP | 0.1
58 | RRIRWRPPRLPRPRPRPLQIPRP | -0.125
59 | RRIRDRPPRLPRPRPRPITWPRP | 0.098
60 | RRIRGRPPRLPRPRPRPDHTPRP | 0.0269
61 | RRIRLRPPRLPRPRPRPMRVPRP | 0.115
62 | RRIRHRPPRLPRPRPRPSIGPRP | -0.335
63 | RRIRFRPPRLPRPRPRPKFKPRP | -0.238
64 | RRIRWRPPRLPRPRPRPWARPRP | 0.135
65 | RRIRQRPPRLPRPRPRPCDWPRP | 0.202
66 | RRIRARPPRLPRPRPRPEDFPRP | 1.11
67 | RRIRNRPPRLPRPRPRPMYKPRP | 0.0573
68 | RRIRSRPPRLPRPRPRPGVVPRP | 0.295
69 | RRIRCRPPRLPRPRPRPFADPRP | -0.45

Row | Sequence | shrunken log2 fold change
70 | RRIRLRPPRLPRPRPRPTWGPRP | 0.637
71 | RRIRWRPPRLPRPRPRPSFPPRP | -0.0295
72 | RRIRNRPPRLPRPRPRPAQRPRP | -0.0476
73 | RRIRVRPPRLPRPRPRPNIGPRP | -0.0964
74 | RRIRQRPPRLPRPRPRPLEYPRP | -0.082
75 | RRIRFRPPRLPRPRPRPLTYPRP | -0.573
76 | RRIRLRPPRLPRPRPRPRMLPRP | -0.0478
77 | RRIRSRPPRLPRPRPRPNWIPRP | -0.659
78 | RRIRVRPPRLPRPRPRPMLAPRP | 0.446
79 | RRIRQRPPRLPRPRPRPTVDPRP | 0.349
80 | RRIRQRPPRLPRPRPRPPLRPRP | 0.49
81 | RRIRRRPPRLPRPRPRPVWCPRP | 0.273
82 | RRIRWRPPRLPRPRPRPFEYPRP | -0.331
83 | RRIRLRPPRLPRPRPRPLWIPRP | -0.399
84 | RRIRPRPPRLPRPRPRPLKSPRP | -0.157
85 | RRIRFRPPRLPRPRPRPVRSPRP | 0.234
86 | RRIRCRPPRLPRPRPRPDSYPRP | -0.286
87 | RRIRPRPPRLPRPRPRPYQLPRP | -0.441
88 | RRIRVRPPRLPRPRPRPELEPRP | 0.292
89 | RRIRPRPPRLPRPRPRPLYCPRP | -0.548
90 | RRIRNRPPRLPRPRPRPMFWPRP | 0.0282
91 | RRIRQRPPRLPRPRPRPNAWPRP | 0.0879
